Measurements: patent US20240293570A1 (priority 2021, published 2024)
Read-outs that look alike come from different tables or passages of the source. *1 amine or outer side, *2 acyl side, *3 side chain or, on linkers, in order; H or OH if unused. Where a SMILES comes first, the peptide text is derived from it. [ ]: non-standard residue; d: D form. The star is where a group is joined. Exatecan = CC[C@@]1(O)C(=O)OCc2c1cc1n(c2=O)Cc2c-1nc1cc(F)c(C)c3c1c2[C@@H](N*)CC3; Propanoyl(3-maleimido) = O=C1C=CC(=O)N1CCC(=O)*; X1 = O=C(CN1CCOCCN([*:1])CCOCC1)[*:2]; NHCH2OCH2CO = O=C(COCN[*:1])[*:2]

Legend:
[1] = Stability (placement) test of ADCs at 40° C. in dark for 14 days, DAR and polymer content; type: physicochemical
Procedure, shortened: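 ADCs stored at 40° C in dark, sampled on days 0, 7 and 14. Polymer content by SE-HPLC (50 mM phosphate, 300 mM NaCl, pH 6.8), area normalization. DAR by RP-HPLC-MS after reduction (1 mg/ml in 50 mmol/L Tris pH 8.0, 50 mmol/L DTT, 37° C, 30 min): deconvoluted chain masses assign drug load, weighted average from UV peak areas.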

[2] = Plasma stability of ADCs, generated payload by LC-MS/MS, monkey plasma; type: in vitro ADME, monkeys; details: 37° C., 100 μg/mL, up to 21 d, FIG. 7-9
Protocol: (§1) In order to further evaluate the characteristics of ADCs, the plasma stability of ADCs was tested. The plasma stability was tested by the following steps:
(§2) A test sample stock solution was diluted with ultra-pure water into a working solution having a concentration of 2.5 mg/mL. The working solution was prepared as needed and used at room temperature.
(§3) Follow the following steps to test plasma samples: • (1) 980 μL of plasma was collected from blank CD-1 mice, monkeys, and humans (experimental group N=2, control group N=1) and pre-incubated at 37° C. for 5 minutes; • (2) 20 μL of test compound working solution (or positive control drug (payload) working solution) was added, followed by vortex mixing (final concentration of the test compound was 100 μg/mL, and final concentration of the positive control drug was 1 μM). 50 μL of plasma sample was immediately added into 150 μL of ice precipitant, followed by vortex mixing as a 0 h sample; • (3) The remaining plasma samples were sealed and further incubated at 37° C., and 50 μL of each plasma sample was pipetted into 150 μL of ice precipitant according to preset time points in Table 3, followed by vortex mixing; […]
(§4) The samples were analyzed using liquid chromatography-tandem mass spectrometry (LC-MS/MS) to measure the quantity of a generated payload, where the quantities of two payloads were measured for dual toxin ADCs respectively.

[3] = Plasma stability of ADCs, generated payload by LC-MS/MS, human plasma; type: in vitro ADME, humans; details: 37° C., 100 μg/mL, up to 21 d, FIG. 7-9
Protocol: as §1, §2, §3, §4

[4] = Plasma stability of ADCs, generated payload by LC-MS/MS, mouse plasma; type: in vitro ADME, CD-1 mice; details: 37° C., 100 μg/mL, up to 21 d, FIG. 7-9
Protocol: as §1, §2, §3, §4

[5] = Polymer (high molecular component) content of antibody-drug conjugates by SE-HPLC; type: physicochemical; details: ADC with Her2 antibody
Procedure, shortened: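 SE-HPLC on 7.8×300 mm SEC column with 50 mM phosphate, 300 mM NaCl (pH 6.8) mobile phase at 0.5 mL/min; high-molecular-weight content determined by area normalization.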

[6] = Naked antibody content of antibody-drug conjugates by hydrophobic interaction chromatography (HIC); type: physicochemical; details: ADC with Her2 antibody
[7] = type: physicochemical; details: ADC with Her2 antibody, RP-HPLC-MS
Procedure, shortened: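 ADC at 1 mg/ml reduced with 50 mmol/L DTT in Tris pH 8.0 for 30 min at 37 °C, then light and heavy chains separated by RP-HPLC on a PLRP-S column at 70 °C. Deconvoluted masses assigned drug load per peak; weighted average DAR calculated from UV peak area percentages.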

[8] = test system: gastric cancer NCI-N87; assay: In vivo anti-tumor effect, gastric cancer NCI-N87 tumor model; parameters: species or system mouse; details: NCI-N87 subcutaneous model, FIG. 10, FIG. 11
Protocol: (§5) Tumor cells (ovarian cancer SKOV-3, gastric cancer NCI-N87, and breast cancer JIMT-1) were cultured in a medium and maintained in a 37° C. saturated humidity incubator containing 5% CO2, respectively.
(§6) Tumor cells in a logarithmic growth phase were collected and re-suspended in a basic medium, and the concentration of cells was adjusted to 4×10^7/mL. Under sterile conditions, 0.1 mL of cell suspension was inoculated subcutaneously into the right armpit of a mouse at a concentration of 4×10^6 Cells/0.1 mL/mouse.
(§7) When the tumor volume reached around 200 mm^3, animals were randomly grouped according to the tumor volume, where the difference in tumor volume between the groups was less than 10% of the mean. The grouping day was recorded as Day 0, and administration started according to the body weight of the animals. In the administration period, if the body weight of individual animals decreased by more than 15% compared to that on Day 0 (BWL≥15%), the administration was stopped until the body weight of the animals recovered (BWL<15%), and then the administration recovered.
(§8) During the experiment, the body weight of the animals and the tumor volume were measured 2 times a week, and clinical symptoms of the animals were observed and recorded every day.

[9] = test system: breast cancer JIMT-1; assay: In vivo anti-tumor effect, breast cancer JIMT-1 tumor model; parameters: species or system mouse; details: JIMT-1 subcutaneous model, FIG. 10
Protocol: as §5, §6, §7, §8

Structure (SMILES)	DAR ([1]; Day 0, 40° C. in dark)	Polymer content (%) ([1]; Day 0, 40° C. in dark)	DAR ([1]; Day 7, 40° C. in dark)	Polymer content (%) ([1]; Day 7, 40° C. in dark)	DAR ([1]; Day 14, 40° C. in dark)	Polymer content (%) ([1]; Day 14, 40° C. in dark)	stability in the plasma of monkeys [2]	stability in the plasma of humans [3]	stability in the plasma of mice [4]	Polymer content (%) [5] [%]	Naked antibody content (%) [6] [%]	DAR [7]	in vivo anti-tumor effect on gastric cancer [8]	in vivo anti-tumor effect on breast cancer [9]
C=C1C[C@@H]2CC[C@@]34C[C@H]5OC6C(O[C@H]7CC[C@H](CC(=O)C[C@@H]8[C@@H](OC)[C@@H](C[C@H](O)CNC(=O)CNC(=O)[C@H](Cc9ccccc9)NC(=O)CNC(=O)CNC(=O)CCOCCOCCN(CCOCCOCCC(=O)NCC(=O)NCC(=O)N[C@@H](Cc9ccccc9)C(=O)NCC(=O)NCOCC(=O)N[C@H]9CCc%10c(C)c(F)cc%11nc%12c(c9c%10%11)Cn9c-%12cc%10c(c9=O)COC(=O)[C@]%10(O)CC)C(=O)CN9CCOCCOCCOCCOCCN(C(=O)CCOCCOCCOCCOCCC%10C(=O)C=CC%10=O)CCOCCOCCOCCOCC9)O[C@H]8C[C@H]8O[C@@H](CC[C@@H]1O2)C[C@@H](C)C8=C)O[C@@H]7[C@@H]6O3)[C@H]5O4 [Example 13]	4.02	0.77	4.02	0.78	4.04	0.91	significantly better	significantly better	significantly better	0.77	5.02	4.02		
CC[C@@]1(O)C(=O)OCc2c1cc1n(c2=O)Cc2c-1nc1cc(F)c(C)c3c1c2[C@@H](NC(=O)COCNC(=O)CNC(=O)[C@H](Cc1ccccc1)NC(=O)CNC(=O)CNC(=O)CN1CCOCCN(C(=O)CCN2C(=O)C=CC2=O)CCOCC1)CC3 [Example 22] ({Propanoyl(3-maleimido)}-[X1]GGFG[NHCH2OCH2CO]-Exatecan)	4.14	0.76	4.12	0.81	4.15	0.78	significantly better	significantly better	significantly better	0.76	0.00	4.14		
C=C1C[C@@H]2CC[C@@]34C[C@H]5OC6C(O[C@H]7CC[C@H](CC(=O)C[C@@H]8[C@@H](OC)[C@@H](C[C@H](O)CNC(=O)CNC(=O)[C@H](Cc9ccccc9)NC(=O)CNC(=O)CN9CCOCCOCCN(C(=O)CCCCCN%10C(=O)C=CC%10=O)CCOCCOCC9)O[C@H]8C[C@H]8O[C@@H](CC[C@@H]1O2)C[C@@H](C)C8=C)O[C@@H]7[C@@H]6O3)[C@H]5O4 [Example 40]	3.78	1.29	3.75	1.31	3.74	1.41				1.29	4.27	3.78	significantly better	
C=C1C[C@@H]2CC[C@@]34C[C@H]5OC6C(O[C@H]7CC[C@H](CC(=O)C[C@@H]8[C@@H](OC)[C@@H](C[C@H](O)CNC(=O)CNC(=O)[C@H](Cc9ccccc9)NC(=O)CNC(=O)CNC(=O)CCCCCN9C(=O)C=CC9=O)O[C@H]8C[C@H]8O[C@@H](CC[C@@H]1O2)C[C@@H](C)C8=C)O[C@@H]7[C@@H]6O3)[C@H]5O4 [Comparative Example 4, reference compound]										10.73	8.01	3.01	poor anti-tumor effects	poor anti-tumor effects
